Assay results as given in the supplement of paper PMC11908140.

B1: library; numbered along this chain (parent)
chain: MRKPRAAVGSGHRKQAASQEGRQKHAKNNSQAKPSACDGLARQPEEVVLQASVSSYHLFRDVAEVTAFRGSLLSWYDQEKRDLPWRRRAEDEMDLDRRAYAVWVSEVMLQQTQVATVINYYTGWMQKWPTLQDLASASLEEVNQLWAGLGYYSRGRRLQEGARKVVEELGGHMPRTAETLQQLLPGVGRYTAGAIASIAFGQATGVVDGNVARVLCRVRAIGADPSSTLVSQQLWGLAQQLVDPARPGDFNQAAMELGATVCTPQRPLCSQCPVESLCRARQRVEQEQLLASGSLSGSPDVEECAPNTGQCHLCLPPSEPWDQTLGVVNFPRKASRKPPREESSATCVLEQPGALGAQILLVQRPNSGLLAGLWEFPSVTWEPSEQLQRKALLQELQRWAGPLPATHLRHLGEVVHTFSHIKLTYQVYGLALEGQTPVTTVPPGARWLTQEEFHTAAVSTAMKKVFRVYQGQQPGTCMGSKRSQVSSPCSRKKPRMGQQVLDNFFRSHISTDAHSLNSAAQ

Variants of: B1
Assay: 8OG:A repair function score (normalized; synonymous = 0, nonsense = -1) (normalized log-likelihood score); higher = more repair activity (WT-like)
Details: with 8OG:A DNA repair reporter (GFP) in HEK-293 MUTYH KO cells
Method in brief: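 After 72 h, viable mCherry+ cells were split into GFP+ (repair) and GFP− bins in three replicates per tile. These cells were MUTYH knockout HEK-293 cells holding lentiviral MUTYH cDNA NNN codon-scan libraries, kept in 10 pg/ml doxycycline and co-transfected with mCherry plus an 8OG:A GFP repair reporter. Sequencing of tile amplicons gave per-tile Rosace fitness scores, normalized into a repair function score anchored on synonymous and nonsense distributions. Synonymous medians were fixed at 0, nonsense at -1, and variants under 300 counts per million at the start were removed.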
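Also: cells sorted at 72 h after reporter transfection.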

8OG:A repair function score, by site and new letter:
D224: P -0.861; H -0.924
R219: K -0.381; E -0.837; I -0.887; D -0.946; A -0.563; C -0.563; S -0.772; G -0.758; T -0.638; N -0.877; H -0.593; V -0.809; Y -0.556; Q -0.682; L -0.542; W -0.783; P -1.02; F -0.485; M -0.571
T228: F -0.051; V 0.153; S 0.124; R 0.329; N -0.0359; G 0.0678; K 0.0779; D -0.245; L 0.00837; H 0.457; W -0.106; Q -0.217; Y -0.0271; P 0.212; C -0.0551; A 0.0743; E 0.0521; M 0.0193; I -0.152
C216: S -0.137; Y -0.886; Q -0.579; T -0.335; R -0.931; I -0.57; M -0.646; K -0.969; V -0.649; W -1; H -0.687; L -0.469; N -0.84; P -0.98
S227: V -0.241; E -0.452; R -0.103; A -0.0215; Y -0.307; G -0.0911; D 0.49; Q -0.0353; N 0.126; W -0.244; P -0.658; L -0.119; K 0.0372; F -0.188; H -0.197; I -0.232; C -0.0498; T 0.0756
L229: Y 0.0445; C -0.201; K 0.076; W -0.0377; I -0.0293; F -0.0261; H 0.287; S 0.0557; M -0.0886; V 0.0526; T -0.124; D -0.158; E -0.064; P -0.112; R 0.134; G -0.0206; Q -0.161; A 0.087; N -0.25
Q232: D -0.0919; G 0.139; M -0.355; W -0.433; V -0.243; N -0.0697; F -0.308; H -0.21; P -0.285; S -0.0424; L -0.326; A -0.179; R 0.171; K -0.0471; I -0.459; C -0.188; Y -0.106; E 0.105; T -0.105
V230: S -0.422; F -0.517; G -0.152; Q -0.787; L -0.499; K -0.826; P -0.409; R -0.524; Y -0.311; H -0.63; T -0.281; N -0.687; C -0.229; I -0.264; M -0.387; E -0.881; D -0.915; A -0.0122; W -0.571
V218: N -0.444; Q -0.472; C -0.211; F -0.436; T -0.283; H -0.41; R -1.03; W -0.74; I -0.196; D -0.983; M 0.0454; L -0.178; E -0.985; A -0.268; Y -0.62; P -1.04; G -0.74; K -1; S -0.374
G222: F -0.564; C -0.509; P -0.731; N -0.593; D -0.733; W -0.349; M -0.381; S -0.439; K -0.495; A -0.213; I -0.608; E -0.565; Y -0.461; L -0.623; T -0.547; V -0.622; H -0.56; Q -0.443; R -0.436
